In paper PMC10943247 (The EMBO Journal, 2024):

Experiments:
Details in all cases: both partners purified
[1] = biological target: T1, CRL2^FEM1B complex with FEM1B^F549T, unneddylated (human, UniProt Q13617 1-745; P62877 1-108; Q15370 1-104; Q15369 17-112; Q9UK73 1-627, F549T); experiment: grating-coupled interferometry; Creoptix WAVE; MBP-BEX2 and FNIP1/FLCN amine-coupled to 4PCP chips; CRL2^FEM1B injected in a 1:3 dilution series from 1 μM in 10 mM HEPES pH 7.5, 150 mM NaCl, 50 μM ZnCl2, 25 °C; 1:1 kinetics model
T1 construct: Cullin-2 (CUL2), human; primers from the start codon to the last codon; RING-box protein 1 (RBX1), human; primers from the start codon to the stop codon; Elongin-B (ELOB), human, residues 1-104; Elongin-C (ELOC), human, residues 17-112; Protein fem-1 homolog B (FEM1B), human, F549T; also called CRL2FEM1B-F549T; source: CUL2/RBX1 from SF9 insect cells and mutant FEM1B/ELOB/ELOC from E. coli …

[2] = biological target: T2, CRL2^FEM1B complex with FEM1B^Δ546-553 (FEM1B^DEL), unneddylated (human, UniProt Q13617 1-745; P62877 1-108; Q15370 1-104; Q15369 17-112; Q9UK73 1-627, Δ546-553); experiment: as above
T2 construct: Cullin-2 (CUL2), human; primers from the start codon to the last codon; RING-box protein 1 (RBX1), human; primers from the start codon to the stop codon; Elongin-B (ELOB), human, residues 1-104; Elongin-C (ELOC), human, residues 17-112; Protein fem-1 homolog B (FEM1B), human, with residues 546-553 deleted; also called CRL2FEM1B-DEL; source: CUL2/RBX1 from SF9 insect cells and mutant …

[3] = biological target: T3, CRL2^FEM1B complex with FEM1B^Y275R/L278R, unneddylated (human, UniProt Q13617 1-745; P62877 1-108; Q15370 1-104; Q15369 17-112; Q9UK73 1-627, Y275R | L278R); experiment: as above
T3 construct: Cullin-2 (CUL2), human; primers from the start codon to the last codon; RING-box protein 1 (RBX1), human; primers from the start codon to the stop codon; Elongin-B (ELOB), human, residues 1-104; Elongin-C (ELOC), human, residues 17-112; Protein fem-1 homolog B (FEM1B), human, Y275R/L278R; also called CRL2FEM1B-Y275R/L278R; CRL2FEM1B-Y275RL278R; source: CUL2/RBX1 from SF9 insect cells and mutant …

[4] = biological target: T4, CRL2^FEM1B complex with FEM1B^F549S, unneddylated (human, UniProt Q13617 1-745; P62877 1-108; Q15370 1-104; Q15369 17-112; Q9UK73 1-627, F549S); experiment: as above
T4 construct: Cullin-2 (CUL2), human; primers from the start codon to the last codon; RING-box protein 1 (RBX1), human; primers from the start codon to the stop codon; Elongin-B (ELOB), human, residues 1-104; Elongin-C (ELOC), human, residues 17-112; Protein fem-1 homolog B (FEM1B), human, F549S; also called CRL2FEM1B-F549S; source: CUL2/RBX1 from SF9 insect cells and mutant FEM1B/ELOB/ELOC from E. coli …

[5] = biological target: T5, CRL2^FEM1B complex with FEM1B^F549R, unneddylated (human, UniProt Q13617 1-745; P62877 1-108; Q15370 1-104; Q15369 17-112; Q9UK73 1-627, F549R); experiment: as above
T5 construct: Cullin-2 (CUL2), human; primers from the start codon to the last codon; RING-box protein 1 (RBX1), human; primers from the start codon to the stop codon; Elongin-B (ELOB), human, residues 1-104; Elongin-C (ELOC), human, residues 17-112; Protein fem-1 homolog B (FEM1B), human, F549R; also called CRL2FEM1B-F549R; source: CUL2/RBX1 from SF9 insect cells and mutant FEM1B/ELOB/ELOC from E. coli …

[6] = biological target: T6, RBX1, as the subunit of CRL2^FEM1B (human, UniProt P62877 1-108); experiment: cryo-EM structure; neddylated CRL2^FEM1B and FNIP1-FLCN mixed 1:1.2, 1 h at 4 °C, GraFix, 1.38 mg/ml
T6 construct: RING-box protein 1 (RBX1), human; primers RBX1-f/RBX1-r run from the start codon to the stop codon; Seen as a subunit of the complexes m1 and m7 in the cryo-EM structures; source: SF9 insect cells, co-expressed with CUL2, purified; within the reconstituted CRL2^FEM1B complex
T6 sequence (P62877 whole entry): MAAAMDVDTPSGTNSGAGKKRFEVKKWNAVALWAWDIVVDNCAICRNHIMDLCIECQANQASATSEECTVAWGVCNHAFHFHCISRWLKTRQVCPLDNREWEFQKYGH

| Binder | Kd [1] | Kd [2] | Kd [3] | Kd [4] | Kd [5] | binding result [6] |
| --- | --- | --- | --- | --- | --- | --- |
| FNIP1/FLCN complex (complex, human, Folliculin (FLCN), human; Calculated mass of the heterodimer printed as 195.8 kDa; also called FNIP1/FLCN heterodimer; source: HEK293F, BacMam baculovirus, purified (Ni-NTA, Strep Trap, TEV, Superose 6); not shown: mCherry, C-terminal, cleaved; His6, C-terminal, cleaved; 2x Strep-tag, C-terminal, cleaved) chain 1: MAPTLFQKLFSKRTGLGAPGRDARDPDCGFSWPLPEFDPSQIRLIVYQDCERRGRNVLFDSSVKRRNEDISVSKLGSDAQVKVFGKCCQLKPGGDSSSSLDSSVTSSSDIKDQCLKYQGSRCSSDANMLGEMMFGSVAMSYKGSTLKIHQIRSPPQLMLSKVFTARTGSSICGSLNTLQDSLEFINQDNNTLKADNNTVINGLLGNIGLSQFCSPRRAFSEQGPLRLIRSASFFAVHSNPMDMPGRELNEDRDSGIARSASLSSLLITPFPSPNSSLTRSCASSYQRRWRRSQTTSLENGVFPRWSIEESFNLSDESCGPNPGIVRKKKIAIGVIFSLSKDEDENNKFNEFFFSHFPLFESHMNKLKSAIEQAMKMSRRSADASQRSLAYNRIVDALNEFRTTICNLYTMPRIGEPVWLTMMSGTPEKNHLCYRFMKEFTFLMENASKNQFLPALITAVLTNHLAWVPTVMPNGQPPIKIFLEKHSSQSVDMLAKTHPYNPLWAQLGDLYGAIGSPVRLARTVVVGKRQDMVQRLLYFLTYFIRCSELQETHLLENGEDEAIVMPGTVITTTLEKGEIEESEYVLVTMHRNKSSLLFKESEEIRTPNCNCKYCSHPLLGQNVENISQQEREDIQNSSKELLGISDECQMISPSDCQEENAVDVKQYRDKLRTCFDAKLETVVCTGSVPVDKCALSESGLESTEETWQSEKLLDSDSHTGKAMRSTGMVVEKKPPDKIVPASFSCEAAQTKVTFLIGDSMSPDSDTELRSQAVVDQITRHHTKPLKEERGAIDQHQETKQTTKDQSGESDTQNMVSEEPCELPCWNHSDPESMSLFDEYFNDDSIETRTIDDVPFKTSTDSKDHCCMLEFSKILCTKNNKQNNEFCKCIETVPQDSCKTCFPQQDQRDTLSILVPHGDKESSDKKIAVGTEWDIPRNESSDSALGDSESEDTGHDMTRQVSSYYGGEQEDWAEEDEIPFPGSKLIEVSAVQPNIANFGRSLLGGYCSSYVPDFVLQGIGSDERFRQCLMSDLSHAVQHPVLDEPIAEAVCIIADMDKWTVQVASSQRRVTDNKLGKEVLVSSLVSNLLHSTLQLYKHNLSPNFCVMHLEDRLQELYFKSKMLSEYLRGQMRVHVKELGVVLGIESSDLPLLAAVASTHSPYVAQILL chain 2: MNAIVALCHFCELHGPRTLFCTEVLHAPLPQGDGNEDSPGQGEQAEEEEGGIQMNSRMRAHSPAEGASVESSSPGPKKSDMCEGCRSLAAGHPGYISHDKETSIKYVSHQHPSHPQLFSIVRQACVRSLSCEVCPGREGPIFFGDEQHGFVFSHTFFIKDSLARGFQRWYSIITIMMDRIYLINSWPFLLGKVRGIIDELQGKALKVFEAEQFGCPQRAQRMNTAFTPFLHQRNGNAARSLTSLTSDDNLWACLHTSFAWLLKACGSRLTEKLLEGAPTEDTLVQMEKLADLEEESESWDNSEAEEEEKAPVLPESTEGRELTQGPAESSSLSGCGSWQPRKLPVFKSLRHMRQVLGAPSFRMLAWHVLMGNQVIWKSRDVDLVQSAFEVLRTMLPVGCVRIIPYSSQYEEAYRCNFLGLSPHVQIPPHVLSSEFAVIVEVHAAARSTLHPVGCEDDQSLSKYEFVVTSGSPVAADRVGPTILNKIEAALTNQNLSVDVVDQCLVCLKEEWMNKVKVLFKFTKVDSRPKEDTQKLLSILGASEEDNVKLLKFWMTGLSKTYKSHLMSTVRSPTASESRN | 33.3 nM | 4.72 nM | 3.13 nM | 17.5 nM | 8.99 nM | binds |
| MBP-BEX2 (natural protein, Protein BEX2, human; source: E. coli BL21(DE3), purified (Ni-NTA, Superdex 200); not shown: MBP, N-terminal, kept) MESKEERALNNLIVENVNQENDEKDEKEQVANKGEPLALPLNVSEYCVPRGNRRRFRVRQPILQYRWDIMHRLGEPQARMREENMERIGEEVRQLMEKLREKQLSHSLRAVSTDPPHHDHHDEFCLMP | 109 nM | 6.62 nM | 3.99 nM | 23 nM | 14 nM | – |
